Data: the DeepSol protein solubility set

test: soluble on expression in E. coli; label from the status in PepcDB or PDB records

| Sequence | soluble on expression in E. coli |
| --- | --- |
| MSLRCPTCQYNGTRVVDSRPADDGNSIRRRRECEKCGFRFTTFEKVEESPLIVVKKDGAREEFAREKVRRGLIRACEKRPVSAEQIEEIVNEVERELRNIGDSEIASDLIGEKVMNKLANLDEVAYVRFASVYRQFKDISVFVEELKDLMEKNKEGHHHHHH | soluble |
| MTDEFKKSTANLKKAVPLMIKNHVAATPANYALWYTYVDKTIPELNFEMDEVLEHYGICPPAANKQLYNNYVASRAETSLEDLKTNVEVLLHEVSSSMSDTLSDTSSFSAMVDKSFNKLEKVEDNSLSIEEVMVVIRQLVAESHEIRHSTKFLNRQLTNASEEISR | not soluble |
| MDCKELARIFYALSEPKRLCMVKLLLEREELCVCDFMRIFKESQPKISFHLKVLREAGLVTSQKRGKWNYYRLNKEAPVIPCVEKLLKDVKLEEKIQLEVKR | soluble |
| ARDTLFVNLTDATDSQSLKLSDFGNTVRYVPLETNEVCLIGNNPHIALLEDKIVIATKDQCFLFHKQTGKYICSIGHIGDDPSGYSSTNYWIDDAGLFYFFRAPDQLLKYNQKGEMTGKIQIPHIPAAPDFFAFSDSTIIAHCNSSIGLESSNSLLFLNSFGEKLDSIPNLLKSPSIPSPDNISSLSIIKRGAGFFGNLGRRGVMIIKDKEQGELLLPLYNPSLWSSENEVRFRETFTDTIYTIKNRKLYPYMVFHTDTDHSSANPLWYSNPQSIYVAYVLENTHSVFFQYVKNKQVYNGLYNKETQQTKFAKCQQFIVDDLTSEQELKVDLSALCSYKGEYGFILEAASIPDASQKQSDNKNENIPHWMSQLDEDANPVIAIVSDK | soluble |
| MKFLKNVLEEGSKLEEFNELELSPEDKELLEYLQQTKAKITVVGCGGAGNNTITRLKMEGIEGAKTVAINTDAQQLIRTKADKKILIGKKLTRGLGAGGNPKIGEEAAKESAEEIKAAIQDSDMVFITCGLGGGTGTGSAPVVAEISKKIGALTVAVVTLPFVMEGKVRMKNAMEGLERLKQHTDTLVVIPNEKLFEIVPNMPLKLAFKVADEVLINAVKGLVELITKDGLINVDFADVKAVMNNGGLAMIGIGESDSEKRAKEAVSMALNSPLLDVDIDGATGALIHVMGPEDLTLEEAREVVATVSSRLDPNATIIWGATIDENLENTVRVLLVITGVQSRIEFTDTGLKRKKLELTGIPKIGSHHHHHH | soluble |
| MFERYQAGEQAVLVHLDFPDESSREDLSEFKMLVSSAGVQALTVVTGKRNTPHPRFFVGSGKAEEIRDAVHLVGANVVLFNHSLTPSQEKNIEALCECRVVDRTTLILDIFAQRARTHEGKLQVELAQLRHMSSRLIRGWTHLERQKGGIGLRGPGETQLETDRRLLRERMVNIRKRLGKVEVQRQQGRRARTRAELPTLSLVGYTNAGKSTLFNTLTQSDVYAADQLFATLDPTLRKIDLFGVGRVILADTVGFIRHLPHDLVAAFKATLTETREAELLLHVVDISDDRRSENIEQVEYVLKEIEANDVPQLIICNKIDNLDDIEPRIDRDDQGMPIRVWLSAQANIGTELLFTALAERLDIQVVNHQLSIPPSAGKLRGELYKLNCVTSETYDEQGHCHLEVNMPSREWERLISTKYSELVDYIEHLEHHHHHH | not soluble |
| MAEKALATLKELAFLEDPSPVERDAAIQRFEYTFEAFWKALQAYLREKEGLEGASPKGVIRLAREVGLLRDEEARLALGMVDDRSLTVHTYNEPLARAIFRRLPDYARLMEQVLGRLRR | soluble |
| MDSSFTPIEQMLKFRASRHEDFPYQEILLTRLCMHMQSKLLENRNKMLKAQGINETLFMALITLESQENHSIQPSELSCALGSSRTNATRIADELEKRGWIERRESDNDRRCLHLQLTEKGHEFLREVLPPQHNCLHQLWSALSTTEKDQLEQITRKLLSRLDQMEQDGVVLEAMS | not soluble |
| MGSDKIHHHHHHMRLLFRKAGEFFRDFVSIFKHISDDLEMYLKLDPAAESKLQVFFFYASFQGLMWYRFAHFFYKWKLKVLAYLIYYFVRVVFSMDIHPAARIAPGVVIDHGIGVVIGSTASVGRGTLIYHGVTLGTRKPCSGKRHPDVGENVMIGTGAKILGPIRVGNNAVVGANAVVLEDVPDGAVVVGVPARIVKWRRDFCDDGKTDREHSYSETRFDRLENLLETGKE | not soluble |
| MKNIGVNINSCKDPDGTIRKYVEKVIKEEKKDVQVKFYDELNYFDEVCKTKPDFFIAFGGDGTILNAARNLVSCGIPIFSVNIGHLGFLSSIEFKDFKDAIHKIFKGEYFFQERTMLKCSFIKGNSKKVFYSLNEVVLYKGNMAKILKYNIDVDDKFYMGFKSDGIIISTPTGSTAYNLSAGGPIIYPNLDLISLTPICPQGPYAGTIVLDGKSNITISGIDANENVFITVDGRQPVDVKGVSFIEISKLNYKCKLLKLKDYNYFEVLRKKIILRTEECEGDKYMAGDPLEHHHHHH | soluble |
| MNGPEVLRFAANLYRVPVEGGYFLVDAGLPWEARRLLSLLQEPPRLLFLTHHHLDHAGGARALWERFRVPVLAHPQEWAYLTKRKPRPPLPLPLLGKGARQLGADDPGGGPRPRGGRGWRSSASGWSTSRGTPLGQVGLFREGVLLAGNALRGRGLPPRFINEDHALARRTVRKILELGVKRVYLGHGGPLSGEEVAAIARRLGV | soluble |
| MALAPAAGCLFDDDNSFTYDVTWYCGMDECTRTEEVQRYDRARQDYSTLTITSSVDDTLFTDGIIAVSNEVPREDCRLVHGLNFLGQDIEPARFCYTPDGFELRVTIPGDGDENSTTWLLRTN | not soluble |
| MASDYEAVNTNPYGVSDGELGPLKYGARFMNMQQRVIPIGSPSLTTGPGNDLQNTDLISSGNYIGYFGNNNNWGFNNEANWNFTDSRMNYAYQNFYSQIFLPWNEIYEIAKDSDSPSEQAILEIANIVRNIAWLRATDVFGPIAYNSAGDGSIAPKFDSQEVVYRSMLADLSKSVELLNTISYSVMAQYDLIYNGNVQNWVKLANSLMLRIVVRVHFIDETLAKEYITKALDPKNGGVIEDISSEAKIKSSDKMPLLNSMLASVNEYNETRMGATIWGYLDGYKDPRLSAYFTEGTYGSGSWAQTGYFPVAPTNSKSKSETSYSAKFASRPKVDSNSPLYWFRASETYFLKAEAALYNLIGGDPKTFYEQGINISFQEQGVSGVATYLSGTGKPTGLTGSNYKYGTYNHDLSIGNTSPKWDDYTGNLSKQEEQLQKIITQKYLALYPNAVEAWTEYRRTGFPYLMKPMDEAAPGRIGASIEDCRVPERFRFAPTAYNSNPNMAEIPTLLGGGDIGATKLWWVRSNRPKQPNQ | soluble |
| MTNLTNYHSHCLYCDGRANMEDFIRFAISEGFSSYGISSHAPLPFSTAWTMEWDRMDDYLSEFARLKEKYADKIELAIGLEIDYLNEESHPAIPRFQELPLDYRIGSVHMLYSPQGKVVDIDTPADIFRQLIDAHFEGDLDYVVHLYYKNLLRMVELGGFDILGHADKMHYNASCYRPGLLDEPWYDALVRDYFAEIARHGYIVEINTKSYHDLGTFYPNERYFPLLKELGIRVQVNSDAHYPERINNSRAEALAALKKVGFDTVVEWHGGQWKDMPLLQLEHHHHHH | soluble |
| MGSDKIHHHHHHMQALERDYGHGDEVASHCHAEDQLIYAASGVMRVSSEGGSWVIPGGHALWMPAGVSHAIRMKGVVCMRTLLLDAHIERCQVIVVSGLLRELILAASRVLNLRDGAHARALILYELAAARRIDAFVPTPQHARLRAWCERFLQDPAQDLTLEQCGAQLNMSARSVARLFQREVGMSYGQWRARARVMLSQQCLADGKPILNVALEHGYQSASAFTAMFKRILGHAPSDWQNGTAREY | not soluble |
| MPSRVPKSIFYNQVGYLISGDKRFWIQAHEPQPFALRTPEGQAVFAGMTKPVGGNWYVGDFTALRVPGTYTLTVGTLEARVVIHRRAYRDVLEAMLRFFDYQLCGVVLPEDEAGPWAHGACHTSDAKVFGTERALACPGGWHDAGDYGKYTVPAAKAVADLLLAHEYFPAALAHVRPMRSVHRAPHLPPALEVAREEIAWLLTMQDPATGGVYHKVTTPSFPPLDTRPEDDDAPLVLSPISYAATATFCAAMAHAALVYRPFDPALSSCCADAARRAYAWLGAHEMQPFHNPDGILTGEYGDAELRDELLWASCALLRMTGDSAWARVCEPLLDLDLPWELGWADVALYGVMDYLRTPRAAVSDDVRNKVKSRLLRELDALAAMAESHPFGIPMRDDDFIWGSNMVLLNRAMAFLLAEGVGVLHPAAHTVAQRAADYLFGANPLGQCYVTGFGQRPVRHPHHRPSVADDVDHPVPGMVVGGPNRHLQDEIARAQLAGRPAMEAYIDHQDSYSTNEVAVYWNSPAVFVIAALLEARGR | soluble |
| SLCGEPGCRHEQTAVKAGRSRNWAGSFAKTPGRLFGVGFIRLYQLTLSGFVGNSCRHIPTCSEYGYEAIARHGLWAGGWMALFRVARCGPGGTSGLDPVPEELDGSKRWWTPWRYWSRHR | soluble |
| KRLQKKIDNGELDSFPEVKEVDVECCGQHEVCERDSLLAAVSKQIEYYDDEELDTFIGRAPEDYTPEEADKFRDVFYTMQDTDVAGWVRSLQLRGISLPDEIKDEVFLVVGERRIH | not soluble |
| MCTRVVYSGSNGMVATGRSMDWKTDMHSNLWVFPRGMKRNGETGENSLEWTSRYGSVVTSAFEIASTDGMNEKGLVANLLWLPETEYPVRDKNKPGLAITAWVQYMLDNFATVEEAVAYIDEDTFQVVSDMMPDGSRLATLHLSISDATGDCAIFEYIGGKLTVYHSKEYKVMTNSPTYNKQLALSEYWKSIGGLSFLPGTNRAADRFARASFYINALPETDDERIAVASVFSVVRNASVPYGISTPESPEISTTQWRTVSESKNLRYFFESSLTPNTFWVNLKDFDLSEGAPVFKLSIANGEMYHGNTAKNFKTALPFKFMGVKG | not soluble |
| MAGEKFQKKGKEKWKEKVWYTVEAPPYLGSKEVSVALGEDSNSMVNRVVEVPISELTGNFKKSNEKALFRITNCEGTKCKTIFIGHYIGDDYIRRLVRRRKERIDIIEDVKTSDNSIITVKIVVVTDGKVTNTKKFQIRKVLTDFILNKGLSLPYSEFVRYLIGDDIYNDMISATKDIYPLKKIEVRKSELVSLSGISEIHAGSQLEHHHHHH | soluble |
| MSLEYNDVVEAVISALKKAHTELPEDVVTAIKKAYDSEENDIAKRNLEAILKNIEAAKKLGVPMCQDTGIPVFFVEVGRELCLDFDLKEAIVEGVRKATAEIPLRPNAVHPITRENSGDNTGLGIPQINVELVKGDELRMVVMPKGAGSENVSALKMMLPTQVDKIKDFVVETVKNAGGKPCPPIFVGVGVGSTFDGAAKLAKKALLRNVLEMNDFELELLEAVNELGIGAMGLGGKYTALAVLVEFGHCHTASLPVAVNIQCWANRRAEVVLREGGSHHHHHH | soluble |
| MSVIYKVVTRPSDPRVPNSPKKYYPHLITLGQSVNLKYIAQKMQGYSSLSIGDIKSVIQNFVEKMKEQLLEGKSVNIEGLGVFMLTACSKGADAAKDVNAKSVDSVRIFFQANKELRITKTATRADEKLDLISLDEYLKKLNASVTPNDPDDGENGGGGNEGGDEEAPDPTV | not soluble |
| MSSVERYLSQLVKTEPQLETLKELYIGKKWHQLTEELLKLIHSGQVNRINLVELYDSFIREFESSLNPLALVRILVGIARKNYRDLNKALEFVDYATNSKAFISADEEASLFLKSETARLKLEGGNLSGVKQILEEVGVAMESTRDLDTVVHSSYHRVCAQYYKAVGPATKYYSSALLFFQYAPLDSFTVEERVHWAYDLGVASIVAETIFNFGEILEYDIMQSLKSEKLQWLLELLEAFKYGSIEKFNQIGNRARDQINQEPALSSNWQFLEQKIRLRSLMELATKKLVERVISFDDICSSCEVTKDQVEYLVMKALSLHLLQGTINEMDETVSISYVQPKTLDRNEVEGLYNRLIPWKTHVHEIALSLERSTEADLAQAQN | soluble |
| STAREQPIFSTRAHVFQIDPATKRNWIPAGKHALTVSYFYDATRNVYRIISIGGAKAIINSTVTPNMTFTKTSQKFGQWADSRANTVYGLGFASEQHLTQFAEKFQEVKEAARLARE | soluble |
